In patent US20170114115A1:

How the values were obtained:
Assay in all cases: cell-based or functional assay
[1] = biological target: human Glucagon-Like Peptide-1 receptor (human) (UniProt P43220)
[2] = biological target: T1, human glucose-dependent insulinotropic polypeptide receptor (human) (UniProt P48546)
T1 sequence (looked up): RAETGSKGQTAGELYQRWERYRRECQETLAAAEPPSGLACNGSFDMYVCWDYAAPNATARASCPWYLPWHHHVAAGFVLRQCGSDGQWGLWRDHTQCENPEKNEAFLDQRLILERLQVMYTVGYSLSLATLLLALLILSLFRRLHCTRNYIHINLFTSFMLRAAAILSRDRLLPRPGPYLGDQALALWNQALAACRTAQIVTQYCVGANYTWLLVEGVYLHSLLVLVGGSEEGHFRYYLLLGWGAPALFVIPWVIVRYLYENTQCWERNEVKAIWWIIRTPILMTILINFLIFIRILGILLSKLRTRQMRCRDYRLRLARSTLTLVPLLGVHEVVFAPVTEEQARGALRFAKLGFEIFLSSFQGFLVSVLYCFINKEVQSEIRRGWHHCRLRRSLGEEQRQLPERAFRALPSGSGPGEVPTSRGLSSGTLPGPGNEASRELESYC

[3] = biological target: recombinant human glucagon receptor (human) (UniProt P47871)
Chain of recombinant human glucagon receptor (human) (P47871 26-477): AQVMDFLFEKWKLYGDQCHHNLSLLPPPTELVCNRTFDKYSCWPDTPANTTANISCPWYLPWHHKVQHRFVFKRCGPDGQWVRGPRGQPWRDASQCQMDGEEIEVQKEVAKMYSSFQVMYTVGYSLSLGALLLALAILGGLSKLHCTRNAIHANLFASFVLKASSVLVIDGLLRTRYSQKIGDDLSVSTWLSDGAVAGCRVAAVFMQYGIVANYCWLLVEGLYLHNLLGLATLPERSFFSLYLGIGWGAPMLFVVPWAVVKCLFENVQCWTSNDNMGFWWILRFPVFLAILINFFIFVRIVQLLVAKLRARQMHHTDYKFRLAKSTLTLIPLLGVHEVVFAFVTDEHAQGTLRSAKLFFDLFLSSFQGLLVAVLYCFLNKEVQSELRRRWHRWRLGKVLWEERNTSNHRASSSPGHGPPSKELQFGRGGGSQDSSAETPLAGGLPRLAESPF

Chain of human Glucagon-Like Peptide-1 receptor (human) (P43220 24-463): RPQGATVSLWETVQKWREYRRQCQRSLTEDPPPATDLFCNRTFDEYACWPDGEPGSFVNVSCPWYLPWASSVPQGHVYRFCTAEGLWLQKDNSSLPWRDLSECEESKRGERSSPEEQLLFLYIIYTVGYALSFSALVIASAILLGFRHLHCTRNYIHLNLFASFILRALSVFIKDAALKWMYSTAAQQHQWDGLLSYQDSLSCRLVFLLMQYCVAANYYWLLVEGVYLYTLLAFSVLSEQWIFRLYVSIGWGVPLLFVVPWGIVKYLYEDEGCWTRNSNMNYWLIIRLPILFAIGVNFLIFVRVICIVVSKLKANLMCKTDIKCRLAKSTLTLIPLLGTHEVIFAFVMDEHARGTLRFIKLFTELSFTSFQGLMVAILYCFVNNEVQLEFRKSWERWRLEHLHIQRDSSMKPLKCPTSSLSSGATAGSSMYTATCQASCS
Chain of dulaglutide (Fc fusion) (chain): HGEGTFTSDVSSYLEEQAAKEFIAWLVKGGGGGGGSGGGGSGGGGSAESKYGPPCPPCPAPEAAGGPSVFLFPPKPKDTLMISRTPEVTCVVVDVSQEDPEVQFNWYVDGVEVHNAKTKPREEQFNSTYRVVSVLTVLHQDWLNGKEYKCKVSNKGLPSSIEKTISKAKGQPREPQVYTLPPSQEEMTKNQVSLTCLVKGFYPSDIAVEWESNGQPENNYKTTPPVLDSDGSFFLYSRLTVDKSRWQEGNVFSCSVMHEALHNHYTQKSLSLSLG

dulaglutide (Fc fusion)
EC50, GLP-1 Receptor Assay (cAMP); sample C6.5-4 C.-4 wk [1]: 0.37 nM | EC50, GLP-1 Receptor Assay (cAMP); sample C6.5-40 C.-4 wk [1]: 0.31 nM | EC50, GLP-1 Receptor Assay (cAMP); sample C6.5MT-4 C.-4 wk [1]: 0.4 nM | EC50, GLP-1 Receptor Assay (cAMP); sample C6.5MT-40 C.-4 wk [1]: 0.29 nM | EC50, GIP Receptor Assay (cAMP); sample C6.5-4 C.-4 wk [2]: > 100 nM | EC50, GIP Receptor Assay (cAMP); sample C6.5-40 C.-4 wk [2]: > 100 nM | EC50, GIP Receptor Assay (cAMP); sample C6.5MT-4 C.-4 wk [2]: > 100 nM | EC50, GIP Receptor Assay (cAMP); sample C6.5MT-40 C.-4 wk [2]: > 100 nM | EC50, Gcg Receptor Assay (cAMP); sample C6.5-4 C.-4 wk [3]: 51.9 nM | EC50, Gcg Receptor Assay (cAMP); sample C6.5-40 C.-4 wk [3]: > 100 nM | EC50, Gcg Receptor Assay (cAMP); sample C6.5MT-4 C.-4 wk [3]: 54 nM | EC50, Gcg Receptor Assay (cAMP); sample C6.5MT-40 C.-4 wk [3]: > 100 nM
